We go through three molecules from US20120321697A1 (GWANGJU INSTITUTE OF SCIENCE AND TECHNOLOGY, published 2012).

No end group written: not given here. vector‑coded linker = not defined here

One experiment deals with T1, TNFa.
T1 construct: Control protein; also called TNF-α
The experiment in a line: phage ELISA (anti-M13-HRP, absorbance at 450 nm), proteins coated at 5 µg/ml. For orientation: ELISA stands for enzyme-linked immunosorbent assay.

The next experiment has as its target BSA (UniProt P02769 25-607). The experiment is described as above.
The next experiment addresses T2, Trx.
T2 construct: Control for the fusion partner; also called thioredoxin; not shown: The His-tag/S-tag linker tail of pET32a, if Trx was expressed from the empty vector
The experiment is described as above.

The target in another experiment is T3, VEGF121 (human, UniProt P15692-9 27-147).
T3 construct: Isoform VEGF121; also called vascular endothelial growth factor
T3 sequence (looked up): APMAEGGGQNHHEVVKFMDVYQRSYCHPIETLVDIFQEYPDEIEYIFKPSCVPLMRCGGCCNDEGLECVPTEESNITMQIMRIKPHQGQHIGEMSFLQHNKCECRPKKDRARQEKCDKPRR
The experiment is described as above.

The target of experiment [1] is T4, Fibronectin ED-B protein (recombinant, N-terminal His-tag, biotinylated where captured on streptavidin) (human, UniProt P02751 1266-1356, biotin by sulfo-NHS-SS-biotin (for biopanning, input phage ELISA and SPR on SA chip)).
T4 construct: domain: ED-B; Expressed in E. coli BL21 from pET28b; also called fibronectin extra domain B; biotinylated-EDB; not shown: N-terminal His-tag from pET28b
The description is as above.

For experiment [2], the target named is T5, VCAM1-Trx (human, UniProt P19320 25-698).
T5 construct: the form used in SPR is not described; also called Trx-VCAM1; vascular cell adhesion molecule-1; not shown: Trx (thioredoxin) fusion partner and tags of pET32a
T5 sequence (looked up): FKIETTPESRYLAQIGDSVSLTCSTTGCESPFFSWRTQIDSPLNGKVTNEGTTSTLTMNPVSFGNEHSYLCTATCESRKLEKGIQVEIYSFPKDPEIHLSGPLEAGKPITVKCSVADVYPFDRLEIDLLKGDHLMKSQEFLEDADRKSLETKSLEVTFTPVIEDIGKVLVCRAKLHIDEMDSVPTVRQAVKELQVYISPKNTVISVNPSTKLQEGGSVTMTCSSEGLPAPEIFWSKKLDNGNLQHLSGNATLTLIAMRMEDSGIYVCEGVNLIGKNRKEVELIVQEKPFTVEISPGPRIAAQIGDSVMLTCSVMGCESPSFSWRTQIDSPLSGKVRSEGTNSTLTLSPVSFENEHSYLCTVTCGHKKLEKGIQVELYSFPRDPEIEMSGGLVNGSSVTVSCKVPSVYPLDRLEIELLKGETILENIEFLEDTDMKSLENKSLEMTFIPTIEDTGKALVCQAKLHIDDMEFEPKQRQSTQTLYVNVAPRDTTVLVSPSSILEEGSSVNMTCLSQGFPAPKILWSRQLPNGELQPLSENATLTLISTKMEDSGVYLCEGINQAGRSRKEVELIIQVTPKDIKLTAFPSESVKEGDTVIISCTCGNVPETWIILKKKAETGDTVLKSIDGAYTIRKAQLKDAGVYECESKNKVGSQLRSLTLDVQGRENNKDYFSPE
Description: SPR (Biacore), synthetic peptide; immobilisation of VCAM1 not described.

Experiment [3] addresses T5, VCAM1-Trx. Description: SPR (Biacore). For orientation: Surface plasmon resonance follows binding to a sensor surface in real time, without labels.
In experiment [4] the target is T4, Fibronectin ED-B protein (recombinant, …). Description: SPR (Biacore X), biotin-EDB on streptavidin chip. The procedure:
(§1) We tested using a SPR device whether the purified GST-BPB protein can bind to fibronectin EDB. […] PBS (pH 7.4) was used as a running buffer and the flow rate was 30 μ1/min. The kinetics was measured in various concentrations and then the affinity was calculated using BIAevaluation.
The affinity of the GST-BPB to fibronectin ED-B was measured using the SPR biacore system.

Experiment [5] shares this target. The experiment in a line: SPR (Biacore X), biotin-EDB on streptavidin chip up to 2000 RU. The procedure: as §1
For experiment [6] the target is unchanged. Description: phage ELISA on 10 coated proteins, absorbance at 450 nm. The procedure:
Each protein (5 μg/ml) was seeded into wells (50 μl per well) in a 96-well ELISA plate and next day, all wells were washed with 0.1% PBST (Tween-20) three times, and blocked at room temperature for 2 hrs using 2% skim milk. Then, the solution was completely removed and the plate was washed with 0.1% PBST three times. Recombinant phages containing the peptide of the present invention were thoroughly mixed with 2% BSA. Each mixture (100 μl) was divided into wells coated with 10 proteins and kept to stand at 27° C. for 2 hrs. After washing with 0.1% PBST 5 times, HRP-conjugated anti-M13 antibodies (1:1,000 dilution; GE Healthcare) were added to each well and incubated at 27° C. for 1 hr. After washing with 0.1% PBST 5 times, 100 μl TMB was divided into each well to induce colorimetric reaction, followed by stopping the reaction adding 100 μl of 1 M HCl. The absorbance was measured at 450 nm.

T4 sequence (P02751 1266-1356): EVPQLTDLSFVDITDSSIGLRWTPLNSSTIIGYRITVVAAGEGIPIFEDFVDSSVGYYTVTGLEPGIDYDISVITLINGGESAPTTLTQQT
BSA, sequence (P02769 25-607 limits assumed): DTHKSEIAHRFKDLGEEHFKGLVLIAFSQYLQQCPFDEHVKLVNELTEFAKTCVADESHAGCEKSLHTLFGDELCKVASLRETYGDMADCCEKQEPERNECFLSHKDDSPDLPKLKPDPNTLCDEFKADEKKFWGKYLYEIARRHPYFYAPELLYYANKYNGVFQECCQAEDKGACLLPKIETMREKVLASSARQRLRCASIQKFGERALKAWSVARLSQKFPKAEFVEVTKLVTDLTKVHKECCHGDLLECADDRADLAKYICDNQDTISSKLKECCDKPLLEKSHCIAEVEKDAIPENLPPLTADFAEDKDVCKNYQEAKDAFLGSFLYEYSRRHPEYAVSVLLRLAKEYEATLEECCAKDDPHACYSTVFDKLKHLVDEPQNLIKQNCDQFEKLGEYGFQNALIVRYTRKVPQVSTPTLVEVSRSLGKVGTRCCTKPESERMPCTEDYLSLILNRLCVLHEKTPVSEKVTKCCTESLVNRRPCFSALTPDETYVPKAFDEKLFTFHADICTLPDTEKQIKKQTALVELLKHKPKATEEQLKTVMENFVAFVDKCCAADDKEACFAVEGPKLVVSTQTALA

B1: Peptide 1 specific to VCAM1 (Table 3c) (peptide)
peptide: QARDCTGSWTWENGKWTWKGPSICPI
notes: Synthetic peptide in SPR; also called BPB
As for B1, the binding result (with TNFa; with BSA; in the experiment with Trx; with VEGF121; in experiment [1]) was “no binding” in each case. The Kd in the experiment with VCAM1-Trx [2] was 318 nM. The koff in the experiment with VCAM1-Trx [3] was found to be 0.1 s⁻¹. In addition, the kon with VCAM1-Trx [3] stood at 330000 M⁻¹ s⁻¹.

B2: GST-BPB fusion protein for fibronectin EDB (other)
chain: {GST-vector‑coded linker}-HCSSAVGSWTWENGKWTWKGIIRLEQ
modifications: not fully specified; reading uncertain
notes: BPB insert cloned BamHI/XhoI into pGEX4T-1, expressed in E. coli BL21; The reverse primer GST-B1 may add a few residues after the BPB; not shown: glutathione S-transferase (GST) as coded by the pGEX4T-1 vector (GE Healthcare); vector-coded linker between GST and BPB
Regarding B2, in experiment [4], the koff amounted to 0.00347 s⁻¹ and the on-rate (kon) came to 12200 M⁻¹ s⁻¹. In experiment [5], the equilibrium dissociation constant (Kd) worked out at 284 nM.

B3: Peptide 2 specific to fibronectin ED-B (Table 3a) (peptide)
peptide: HCSSAVGSWTWENGKWTWKGIIRLEQ
notes: Synthetic peptide in SPR; also called tryptophan zipper
In the case of B3, the “fold absorbance against other proteins” value in [6] is 30 fold.

A word on the Kd: it is the equilibrium constant for the complex coming apart. As usually defined, the koff is a measure of how fast the partners let go of each other. As usually defined, the kon is a measure of how fast the partners come together.
